# Data from patent US20200181597A1, “Composition and Application of Arginine-depleting Agents for Cancer, Obesity, Metabolic Disorders, and Related Complications and Comorbidities” (THE HONG KONG POLYTECHNIC UNIVERSITY, priority 2018, published 2020).
# B1: N-ABD094-rhArg: albumin binding domain ABD094 fused N-terminally to recombinant human arginase I, SEQ ID NO: 50 (protein)
# chain: MHHHHHHDEAVDANSLAEAKEAANAELDSYGVSDFYKRLIDKAKTVEGVEALKDAILAALPSGSNNNNNNGSGGMSAKSRTIGIIGAPFSKGQPRGGVEEGPTVLRKAGLLEKLKEQECDVKDYGDLPFADIPNDSPFQIVKNPRSVGKASEQLAGKVAEVKKNGRISLVLGGDHSLAIGSISGHARVHPDLGVIWVDAHTDINTPLTTTSGNLHGQPVSFLLKELKGKIPDVPGFSWVTPCISAKDIVYIGLRDVDPGEHYILKTLGIKYFSMTEVDRLGIGKVMEETLSYLLGRKKRPIHLSFDVDGLDPSFTPATGTPVVGGLTYREGLYITEEIYKTGLLSGLDIMEVNPSLGKTPEEVTRTVNTAVAITLACFGLAREGNHKPIDYLNPPK
# modifications: Mn2+; N-ABD094-rhArg, Synthesized in the Lab
# Test system: plasma arginine
# Assay: Plasma arginine after single i.p. 500U N-ABD094-rhArg (LC-MS/MS)
# Assay type: in vivo, C57BL/6J male mice
# Procedure: Each time point represents mean±SEM of 5 mice.
# Fifty C57BL/6J male mice (10-12 weeks of age) were used in this study. A single dose of 500U N-ABD094-rhArg (SEQ ID NO: 50) was administered to the mouse via i.p. injection. Blood samples were collected from the saphenous vein using heparinized capillary tubes, and were centrifuged at 800×g to obtain plasma.
# Following injection, serum was collected at Hour 2, Hour 4, Hour 8, Hour 16, Hour 24 (Day 1) and from Day 2 to Day 12 at 24-hour intervals, and from Day 12 to Day 30 at 72-hour intervals. To strike a balance between the number of animals used and to minimize the effect on results of pharmacokinetics and pharmacodynamics study caused by removal of N-ABD094-rhArg (SEQ ID NO: 50) from the mouse as a consequence of blood collection, mice were divided into 10 groups, with n=5 in each group, and subjected to blood collection at the indicated time-point(s) shown in brackets: Group 1 (Hour 2), Group 2 (Hour 4), Group 3 (Hour 8), Group 4 (Hour 16), Group 5 (Hour 24), Group 6 (Day 2, Day 7, Day 12), Group 7 (Day 3, Day 8, Day 18), Group 8 (Day 4, Day 9, Day 21), Group 9 (Day 5, Day 10, Day 15, Day 24), Group 10 (Day 0, Day 6, Day 11, Day 27, Day 30).
molecule,measurement,setting,value
B1,plasma arginine concentration reached within 2 hour after injection,500U i.p.,1 µM
same,Plasma arginine concentrations (Mean of 5 mice ± SEM),Day 2 after i.p. 500U,0.944 ± 0.007 µM
same,Plasma arginine concentrations (Mean of 5 mice ± SEM),Day 3 after i.p. 500U,0.965 ± 0.008 µM
same,Plasma arginine concentrations (Mean of 5 mice ± SEM),Day 4 after i.p. 500U,0.535 ± 0.121 µM
same,Plasma arginine concentrations (Mean of 5 mice ± SEM),Day 5 after i.p. 500U,0.681 ± 0.043 µM
same,Plasma arginine concentrations (Mean of 5 mice ± SEM),Day 6 after i.p. 500U,0.896 ± 0.089 µM
same,Plasma arginine concentrations (Mean of 5 mice ± SEM),Day 7 after i.p. 500U,0.792 ± 0.135 µM
same,Plasma arginine concentrations (Mean of 5 mice ± SEM),Day 8 after i.p. 500U,0.916 ± 0.079 µM
same,Plasma arginine concentrations (Mean of 5 mice ± SEM),Day 9 after i.p. 500U,1.224 ± 0.178 µM
same,Plasma arginine concentrations (Mean of 5 mice ± SEM),Day 10 after i.p. 500U,0.721 ± 0.054 µM
same,Plasma arginine concentrations (Mean of 5 mice ± SEM),Day 11 after i.p. 500U,3.828 ± 1.511 µM
same,Plasma arginine concentrations (Mean of 5 mice ± SEM),Day 12 after i.p. 500U,7.607 ± 2.325 µM
same,Plasma arginine concentrations (Mean of 5 mice ± SEM),Day 15 after i.p. 500U,31.283 ± 4.569 µM
same,Plasma arginine concentrations (Mean of 5 mice ± SEM),Day 18 after i.p. 500U,48.648 ± 3.989 µM
same,Plasma arginine concentrations (Mean of 5 mice ± SEM),Day 21 after i.p. 500U,73.55 ± 3.76 µM
same,Plasma arginine concentrations (Mean of 5 mice ± SEM),Day 24 after i.p. 500U,76.07 ± 4.92 µM
same,Plasma arginine concentrations (Mean of 5 mice ± SEM),Day 27 after i.p. 500U,111.09 ± 6.21 µM
same,Plasma arginine concentrations (Mean of 5 mice ± SEM),Day 30 after i.p. 500U,110.91 ± 3.81 µM
same,Plasma arginine concentrations (Mean of 5 mice ± SEM),Hour 2 after i.p. 500U,1.007 ± 0.013 µM
same,Plasma arginine concentrations (Mean of 5 mice ± SEM),Hour 4 after i.p. 500U,0.934 ± 0.021 µM
same,Plasma arginine concentrations (Mean of 5 mice ± SEM),Hour 8 after i.p. 500U,0.912 ± 0.006 µM
same,Plasma arginine concentrations (Mean of 5 mice ± SEM),Hour 16 after i.p. 500U,0.943 ± 0.010 µM
same,Plasma arginine concentrations (Mean of 5 mice ± SEM),Hour 24 after i.p. 500U,0.934 ± 0.007 µM
